What all share (test): cross-linking + co-IP; BHK-21 cells 42 h post-electroporation with WT or mutant viral RNA cross-linked with 1 mM DSP in PBS, 10 min, room temperature, quenched with 125 mM glycine; lysis buffer 2 (10 mM sodium phosphate pH 7.4, 50 mM NaCl, 1% Triton X-100); IP with mAb E1-20 or control mAb; cross-link reversed by DTT; western blot with RuV pAb
A general note: A western blot detects proteins with antibodies after separation by electrophoresis.

Assay [1] has as its target Rubella virus E2 envelope glycoprotein of the second-site revertant (N277I in the Y281A background) (Rubella virus (RuV)).
Assay [2] deals with Rubella virus E2 envelope glycoprotein, Y281A mutant (Rubella virus (RuV)).
For assay [3], the target named is Rubella virus E2 envelope glycoprotein, pseudorevertant Y281V (Rubella virus (RuV)).

“Rubella virus capsid protein, D215A (second-site revertant) (from UniProt P08563 1-300) (natural protein)”: the Cp/E2 ratio in the E1 mAb IP, normalised to WT (ratio, WT set to 1) in assay [1] was 0.85.

B1: Rubella virus capsid protein, wild type (natural protein)
chain: MASTTPITMEDLQKALEAQSRALRAGLAAGASQSRRPRPPRQRDSSTSGDDSGRDSGGPRRRRGNRGRGQRKDWSRAPPPPEERQESRSQTPAPKPSRAPPQQPQPPRMQTGRGGSAPRPELGPPTNPFQAAVARGLRPPLHDPDTEAPTEACVTSWLWSEGEGAVFYRVDLHFTNLGTPPLDEDGRWDPALMYNPCGPEPPAHVVRAYNQPAGDVRGVWGKGERTYAEQDFRVGGTRWHRLLRMPVRGLDGDTAPLPPHTTERIETRSARHPWRIRFGAPQAFLAGLLLAAVAVGTARA
As for B1, the Cp/E2 ratio in the E1 mAb IP, normalised to WT (ratio, WT set to 1) in assay [2] worked out at 0.31; in assay [3] it was 0.46.

The values are drawn from publication PMC11481484.
